* marks the point of attachment. C18 diacid = O=C(O)CCCCCCCCCCCCCCCCC(=O)*
T1: human amylin 3(a) receptor (human calcitonin receptor co-expressed with RAMP-3) (human, UniProt P30988 25-474; O60896 24-148, limits assumed)
T1 sequence (looked up) 1: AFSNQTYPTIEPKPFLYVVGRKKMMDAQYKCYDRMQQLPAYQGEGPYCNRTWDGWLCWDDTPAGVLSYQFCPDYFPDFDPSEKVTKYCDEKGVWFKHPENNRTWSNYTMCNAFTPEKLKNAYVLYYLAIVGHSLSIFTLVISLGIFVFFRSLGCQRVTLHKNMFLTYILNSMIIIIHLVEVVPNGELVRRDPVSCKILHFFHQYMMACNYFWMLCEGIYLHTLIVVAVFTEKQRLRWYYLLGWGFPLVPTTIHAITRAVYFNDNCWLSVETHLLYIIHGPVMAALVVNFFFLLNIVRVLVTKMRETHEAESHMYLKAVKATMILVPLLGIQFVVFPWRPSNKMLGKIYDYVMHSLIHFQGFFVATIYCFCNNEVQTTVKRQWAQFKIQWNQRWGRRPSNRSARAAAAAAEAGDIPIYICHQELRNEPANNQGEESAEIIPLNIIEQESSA
T1 sequence (looked up) 2: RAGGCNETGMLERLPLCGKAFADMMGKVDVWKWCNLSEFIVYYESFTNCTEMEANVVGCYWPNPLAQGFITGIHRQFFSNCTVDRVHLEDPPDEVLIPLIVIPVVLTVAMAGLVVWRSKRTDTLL

T2: human calcitonin receptor (human, UniProt P30988 25-474)
T2 sequence (looked up): T1 sequence (looked up) 1

B1: [N-terminal(C18 diacid), 9V, 10I]mimylin (peptide)
peptide: {C18 diacid}-EASELSTAVIGRLSAELHELATLPRTETGPESP-NH2
SMILES: CC[C@H](C)[C@H](NC(=O)[C@@H](NC(=O)[C@H](C)NC(=O)[C@@H](NC(=O)[C@H](CO)NC(=O)[C@H](CC(C)C)NC(=O)[C@H](CCC(=O)O)NC(=O)[C@H](CO)NC(=O)[C@H](C)NC(=O)[C@H](CCC(=O)O)NC(=O)CCCCCCCCCCCCCCCCC(=O)O)[C@@H](C)O)C(C)C)C(=O)NCC(=O)N[C@@H](CCCNC(=N)N)C(=O)N[C@@H](CC(C)C)C(=O)N[C@@H](CO)C(=O)N[C@@H](C)C(=O)N[C@@H](CCC(=O)O)C(=O)N[C@@H](CC(C)C)C(=O)N[C@@H](Cc1c[nH]cn1)C(=O)N[C@@H](CCC(=O)O)C(=O)N[C@@H](CC(C)C)C(=O)N[C@@H](C)C(=O)N[C@H](C(=O)N[C@@H](CC(C)C)C(=O)N1CCC[C@H]1C(=O)N[C@@H](CCCNC(=N)N)C(=O)N[C@H](C(=O)N[C@@H](CCC(=O)O)C(=O)N[C@H](C(=O)NCC(=O)N1CCC[C@H]1C(=O)N[C@@H](CCC(=O)O)C(=O)N[C@@H](CO)C(=O)N1CCC[C@H]1C(N)=O)[C@@H](C)O)[C@@H](C)O)[C@@H](C)O
B2: [N-terminal(C18 diacid), 9L, 10A]mimylin (peptide)
peptide: {C18 diacid}-EASELSTALAGRLSAELHELATLPRTETGPESP-NH2
SMILES: CC(C)C[C@H](NC(=O)[C@H](C)NC(=O)[C@@H](NC(=O)[C@H](CO)NC(=O)[C@H](CC(C)C)NC(=O)[C@H](CCC(=O)O)NC(=O)[C@H](CO)NC(=O)[C@H](C)NC(=O)[C@H](CCC(=O)O)NC(=O)CCCCCCCCCCCCCCCCC(=O)O)[C@@H](C)O)C(=O)N[C@@H](C)C(=O)NCC(=O)N[C@@H](CCCNC(=N)N)C(=O)N[C@@H](CC(C)C)C(=O)N[C@@H](CO)C(=O)N[C@@H](C)C(=O)N[C@@H](CCC(=O)O)C(=O)N[C@@H](CC(C)C)C(=O)N[C@@H](Cc1c[nH]cn1)C(=O)N[C@@H](CCC(=O)O)C(=O)N[C@@H](CC(C)C)C(=O)N[C@@H](C)C(=O)N[C@H](C(=O)N[C@@H](CC(C)C)C(=O)N1CCC[C@H]1C(=O)N[C@@H](CCCNC(=N)N)C(=O)N[C@H](C(=O)N[C@@H](CCC(=O)O)C(=O)N[C@H](C(=O)NCC(=O)N1CCC[C@H]1C(=O)N[C@@H](CCC(=O)O)C(=O)N[C@@H](CO)C(=O)N1CCC[C@H]1C(N)=O)[C@@H](C)O)[C@@H](C)O)[C@@H](C)O
B3: [N-terminal(C18 diacid), 2P, 9V]mimylin (peptide)
peptide: {C18 diacid}-EPSELSTAVLGRLSAELHELATLPRTETGPESP-NH2
SMILES: CC(C)C[C@H](NC(=O)[C@H](CCC(=O)O)NC(=O)[C@H](Cc1c[nH]cn1)NC(=O)[C@H](CC(C)C)NC(=O)[C@H](CCC(=O)O)NC(=O)[C@H](C)NC(=O)[C@H](CO)NC(=O)[C@H](CC(C)C)NC(=O)[C@H](CCCNC(=N)N)NC(=O)CNC(=O)[C@H](CC(C)C)NC(=O)[C@@H](NC(=O)[C@H](C)NC(=O)[C@@H](NC(=O)[C@H](CO)NC(=O)[C@H](CC(C)C)NC(=O)[C@H](CCC(=O)O)NC(=O)[C@H](CO)NC(=O)[C@@H]1CCCN1C(=O)[C@H](CCC(=O)O)NC(=O)CCCCCCCCCCCCCCCCC(=O)O)[C@@H](C)O)C(C)C)C(=O)N[C@@H](C)C(=O)N[C@H](C(=O)N[C@@H](CC(C)C)C(=O)N1CCC[C@H]1C(=O)N[C@@H](CCCNC(=N)N)C(=O)N[C@H](C(=O)N[C@@H](CCC(=O)O)C(=O)N[C@H](C(=O)NCC(=O)N1CCC[C@H]1C(=O)N[C@@H](CCC(=O)O)C(=O)N[C@@H](CO)C(=O)N1CCC[C@H]1C(N)=O)[C@@H](C)O)[C@@H](C)O)[C@@H](C)O
B4: [N-terminal(C18 diacid), 3P, 9V]mimylin (peptide)
peptide: {C18 diacid}-EAPELSTAVLGRLSAELHELATLPRTETGPESP-NH2
SMILES: CC(C)C[C@H](NC(=O)[C@H](CCC(=O)O)NC(=O)[C@H](Cc1c[nH]cn1)NC(=O)[C@H](CC(C)C)NC(=O)[C@H](CCC(=O)O)NC(=O)[C@H](C)NC(=O)[C@H](CO)NC(=O)[C@H](CC(C)C)NC(=O)[C@H](CCCNC(=N)N)NC(=O)CNC(=O)[C@H](CC(C)C)NC(=O)[C@@H](NC(=O)[C@H](C)NC(=O)[C@@H](NC(=O)[C@H](CO)NC(=O)[C@H](CC(C)C)NC(=O)[C@H](CCC(=O)O)NC(=O)[C@@H]1CCCN1C(=O)[C@H](C)NC(=O)[C@H](CCC(=O)O)NC(=O)CCCCCCCCCCCCCCCCC(=O)O)[C@@H](C)O)C(C)C)C(=O)N[C@@H](C)C(=O)N[C@H](C(=O)N[C@@H](CC(C)C)C(=O)N1CCC[C@H]1C(=O)N[C@@H](CCCNC(=N)N)C(=O)N[C@H](C(=O)N[C@@H](CCC(=O)O)C(=O)N[C@H](C(=O)NCC(=O)N1CCC[C@H]1C(=O)N[C@@H](CCC(=O)O)C(=O)N[C@@H](CO)C(=O)N1CCC[C@H]1C(N)=O)[C@@H](C)O)[C@@H](C)O)[C@@H](C)O
B5: [N-terminal(C18 diacid), 4P, 9V]mimylin (peptide)
peptide: {C18 diacid}-EASPLSTAVLGRLSAELHELATLPRTETGPESP-NH2
SMILES: CC(C)C[C@H](NC(=O)[C@H](CCC(=O)O)NC(=O)[C@H](Cc1c[nH]cn1)NC(=O)[C@H](CC(C)C)NC(=O)[C@H](CCC(=O)O)NC(=O)[C@H](C)NC(=O)[C@H](CO)NC(=O)[C@H](CC(C)C)NC(=O)[C@H](CCCNC(=N)N)NC(=O)CNC(=O)[C@H](CC(C)C)NC(=O)[C@@H](NC(=O)[C@H](C)NC(=O)[C@@H](NC(=O)[C@H](CO)NC(=O)[C@H](CC(C)C)NC(=O)[C@@H]1CCCN1C(=O)[C@H](CO)NC(=O)[C@H](C)NC(=O)[C@H](CCC(=O)O)NC(=O)CCCCCCCCCCCCCCCCC(=O)O)[C@@H](C)O)C(C)C)C(=O)N[C@@H](C)C(=O)N[C@H](C(=O)N[C@@H](CC(C)C)C(=O)N1CCC[C@H]1C(=O)N[C@@H](CCCNC(=N)N)C(=O)N[C@H](C(=O)N[C@@H](CCC(=O)O)C(=O)N[C@H](C(=O)NCC(=O)N1CCC[C@H]1C(=O)N[C@@H](CCC(=O)O)C(=O)N[C@@H](CO)C(=O)N1CCC[C@H]1C(N)=O)[C@@H](C)O)[C@@H](C)O)[C@@H](C)O
B6: [N-terminal(C18 diacid), 9V, 25P]mimylin (peptide)
peptide: {C18 diacid}-EASELSTAVLGRLSAELHELATLPPTETGPESP-NH2
SMILES: CC(C)C[C@H](NC(=O)[C@H](CCC(=O)O)NC(=O)[C@H](Cc1c[nH]cn1)NC(=O)[C@H](CC(C)C)NC(=O)[C@H](CCC(=O)O)NC(=O)[C@H](C)NC(=O)[C@H](CO)NC(=O)[C@H](CC(C)C)NC(=O)[C@H](CCCNC(=N)N)NC(=O)CNC(=O)[C@H](CC(C)C)NC(=O)[C@@H](NC(=O)[C@H](C)NC(=O)[C@@H](NC(=O)[C@H](CO)NC(=O)[C@H](CC(C)C)NC(=O)[C@H](CCC(=O)O)NC(=O)[C@H](CO)NC(=O)[C@H](C)NC(=O)[C@H](CCC(=O)O)NC(=O)CCCCCCCCCCCCCCCCC(=O)O)[C@@H](C)O)C(C)C)C(=O)N[C@@H](C)C(=O)N[C@H](C(=O)N[C@@H](CC(C)C)C(=O)N1CCC[C@H]1C(=O)N1CCC[C@H]1C(=O)N[C@H](C(=O)N[C@@H](CCC(=O)O)C(=O)N[C@H](C(=O)NCC(=O)N1CCC[C@H]1C(=O)N[C@@H](CCC(=O)O)C(=O)N[C@@H](CO)C(=O)N1CCC[C@H]1C(N)=O)[C@@H](C)O)[C@@H](C)O)[C@@H](C)O
B7: [N-terminal(C18 diacid), 9V, 28P]mimylin (peptide)
peptide: {C18 diacid}-EASELSTAVLGRLSAELHELATLPRTEPGPESP-NH2
SMILES: CC(C)C[C@H](NC(=O)[C@H](CCC(=O)O)NC(=O)[C@H](Cc1c[nH]cn1)NC(=O)[C@H](CC(C)C)NC(=O)[C@H](CCC(=O)O)NC(=O)[C@H](C)NC(=O)[C@H](CO)NC(=O)[C@H](CC(C)C)NC(=O)[C@H](CCCNC(=N)N)NC(=O)CNC(=O)[C@H](CC(C)C)NC(=O)[C@@H](NC(=O)[C@H](C)NC(=O)[C@@H](NC(=O)[C@H](CO)NC(=O)[C@H](CC(C)C)NC(=O)[C@H](CCC(=O)O)NC(=O)[C@H](CO)NC(=O)[C@H](C)NC(=O)[C@H](CCC(=O)O)NC(=O)CCCCCCCCCCCCCCCCC(=O)O)[C@@H](C)O)C(C)C)C(=O)N[C@@H](C)C(=O)N[C@H](C(=O)N[C@@H](CC(C)C)C(=O)N1CCC[C@H]1C(=O)N[C@@H](CCCNC(=N)N)C(=O)N[C@H](C(=O)N[C@@H](CCC(=O)O)C(=O)N1CCC[C@H]1C(=O)NCC(=O)N1CCC[C@H]1C(=O)N[C@@H](CCC(=O)O)C(=O)N[C@@H](CO)C(=O)N1CCC[C@H]1C(N)=O)[C@@H](C)O)[C@@H](C)O

molecular target: T1, human amylin 3(a) receptor (human …); assay: cell-based or functional assay

Going from B1 to B2, the “hAmylin-R funct. EC50 (pM)” value rises from 7 pM to 8 pM.

Compared with B3, B4 is higher in “hAmylin-R funct. EC50 (pM)” value: 8 pM for the first, 10 pM for the second.

B5 and B6 are the same in “hAmylin-R funct. EC50 (pM)” value: 14 pM for the first, 14 pM for the second.

B7 was tested, and the “hAmylin-R funct. EC50 (pM)” value was 31 pM.

molecular target: T2, human calcitonin receptor; assay: cell-based or functional assay

First: B1
Second: B2
The “hCTR funct. EC50 (pM)” value of the first is higher: 6 pM for the first, 4 pM for the second.

B3 and B4 are the same in “hCTR funct. EC50 (pM)” value: 7 pM for the first, 7 pM for the second.

Going from B5 to B6, the “hCTR funct. EC50 (pM)” value falls from 7 pM to 6 pM.

For B7, the “hCTR funct. EC50 (pM)” value was 12 pM.

Source: patent publication US20160272683A1 (Novo Nordisk, published 2016)
